Patent US20250144178A1 (KANAPH THERAPEUTICS, published 2025)

Experiments:
[1] = target: T1, human FAP (fibroblast activation protein alpha) overexpressed in HEK293 cells (HEK293-hFAP) (human, UniProt Q12884 1-760); experiment: flow cytometry on HEK293-hFAP cells, 1 µg protein per 1x10^5 cells, anti-human IgG detection
T1 construct: whole, on cells; also called human FAP-expressing cell line
T1 sequence (looked up): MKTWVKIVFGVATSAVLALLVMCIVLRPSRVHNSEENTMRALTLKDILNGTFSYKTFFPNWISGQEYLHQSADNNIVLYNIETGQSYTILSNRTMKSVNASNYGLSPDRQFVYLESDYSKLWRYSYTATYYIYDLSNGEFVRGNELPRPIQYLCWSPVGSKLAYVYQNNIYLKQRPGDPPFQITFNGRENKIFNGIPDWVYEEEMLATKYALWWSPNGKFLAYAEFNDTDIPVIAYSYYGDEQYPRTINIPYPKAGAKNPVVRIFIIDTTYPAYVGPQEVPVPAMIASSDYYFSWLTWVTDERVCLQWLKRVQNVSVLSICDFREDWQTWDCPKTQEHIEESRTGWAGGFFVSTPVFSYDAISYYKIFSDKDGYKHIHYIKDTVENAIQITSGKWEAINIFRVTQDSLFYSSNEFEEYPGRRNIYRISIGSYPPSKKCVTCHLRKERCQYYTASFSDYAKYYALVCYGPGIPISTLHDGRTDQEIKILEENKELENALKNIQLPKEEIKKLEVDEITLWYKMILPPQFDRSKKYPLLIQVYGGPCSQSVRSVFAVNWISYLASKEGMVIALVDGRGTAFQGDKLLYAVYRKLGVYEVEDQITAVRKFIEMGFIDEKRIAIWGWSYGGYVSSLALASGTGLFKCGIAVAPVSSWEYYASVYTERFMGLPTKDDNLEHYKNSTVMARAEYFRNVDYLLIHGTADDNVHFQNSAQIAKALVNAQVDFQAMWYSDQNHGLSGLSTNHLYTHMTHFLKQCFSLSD
Method: (§1) Specifically, the cell line was prepared by suspending in a FACS buffer solution at 1×10⁵ cells/100 μl, and treated with 1 μg each of T1.12, T1.01, T1.02 and T1.03. The cells were washed twice with a FACS buffer solution. The cells were stained with an anti-human IgG antibody (Biolegend). The negative control was stained only with an anti-human IgG antibody (Biolegend). The expression rates of the stained cells were measured using BD LSR and analyzed using a FlowJo software.

[2] = target: IL-12 receptor of human T cells (human, UniProt P42701 24-662; Q99665 24-862); experiment: cell-based or functional assay
Chain of IL-12 receptor of human T cells (Q99665 24-862, chain 2 of 2, other chains not shown): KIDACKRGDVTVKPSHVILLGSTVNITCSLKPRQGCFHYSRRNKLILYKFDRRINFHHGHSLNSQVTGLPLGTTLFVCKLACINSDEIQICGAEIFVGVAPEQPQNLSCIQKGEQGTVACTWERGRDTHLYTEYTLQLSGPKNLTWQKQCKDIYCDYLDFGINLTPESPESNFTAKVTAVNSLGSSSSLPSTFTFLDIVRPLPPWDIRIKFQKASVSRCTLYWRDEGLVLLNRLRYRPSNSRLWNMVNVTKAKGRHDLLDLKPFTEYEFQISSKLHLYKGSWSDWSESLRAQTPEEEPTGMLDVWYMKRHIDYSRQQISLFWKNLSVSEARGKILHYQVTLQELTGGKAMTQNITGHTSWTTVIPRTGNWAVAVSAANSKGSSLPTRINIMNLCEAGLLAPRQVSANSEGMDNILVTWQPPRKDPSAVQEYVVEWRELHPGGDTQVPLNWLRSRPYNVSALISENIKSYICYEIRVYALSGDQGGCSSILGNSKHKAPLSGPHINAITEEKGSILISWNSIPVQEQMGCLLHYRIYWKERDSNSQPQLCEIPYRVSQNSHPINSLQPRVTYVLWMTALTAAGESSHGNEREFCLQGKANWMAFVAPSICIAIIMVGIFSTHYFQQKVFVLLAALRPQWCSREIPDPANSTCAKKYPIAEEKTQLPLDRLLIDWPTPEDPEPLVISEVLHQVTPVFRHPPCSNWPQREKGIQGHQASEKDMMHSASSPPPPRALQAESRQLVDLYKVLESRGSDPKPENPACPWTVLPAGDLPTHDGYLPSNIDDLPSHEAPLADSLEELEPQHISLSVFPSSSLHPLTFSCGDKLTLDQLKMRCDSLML

[3] = target: T2, IL-12 receptor beta 1-biotin (recombinant human IL-12 receptor protein) (human, UniProt P42701 24-545, limits assumed, biotin (site not stated)); experiment: ELISA, fusion protein coated in serial dilution, 1 nM IL-12Rβ1-biotin, streptavidin-HRP, OD at 450 nm
T2 construct: Bought reagent; also called IL-12Rβ1-Biotin
Method: (§2) (ii) The wells were washed with a wash solution, and then blocking was performed for 1 hour with 1% BSA (Bovine serum albumin, Sigma) solution.
(§3) (iii) The wells were washed with a wash solution, and then treated with 1 nM IL-12 receptor beta 1-biotin (IL-12Rβ1-Biotin; Acrobiosystems, Newark, USA) for 2 hours.
(§4) (iv) The wells were washed with a wash solution, and then treated with streptavidin-HRP for 20 minutes.

recombinant human FAP [4] = target: T3, recombinant human FAP (human, UniProt Q12884 26-760); experiment: SPR, fusion protein captured by anti-human IgG (Fc) on a CM5 chip, hFAP his as analyte 0.78125-50 nM, 1:1 binding model
T3 construct: Soluble analyte in SPR; The description calls FAP a homodimer; also called rhFAP
T3 sequence (looked up): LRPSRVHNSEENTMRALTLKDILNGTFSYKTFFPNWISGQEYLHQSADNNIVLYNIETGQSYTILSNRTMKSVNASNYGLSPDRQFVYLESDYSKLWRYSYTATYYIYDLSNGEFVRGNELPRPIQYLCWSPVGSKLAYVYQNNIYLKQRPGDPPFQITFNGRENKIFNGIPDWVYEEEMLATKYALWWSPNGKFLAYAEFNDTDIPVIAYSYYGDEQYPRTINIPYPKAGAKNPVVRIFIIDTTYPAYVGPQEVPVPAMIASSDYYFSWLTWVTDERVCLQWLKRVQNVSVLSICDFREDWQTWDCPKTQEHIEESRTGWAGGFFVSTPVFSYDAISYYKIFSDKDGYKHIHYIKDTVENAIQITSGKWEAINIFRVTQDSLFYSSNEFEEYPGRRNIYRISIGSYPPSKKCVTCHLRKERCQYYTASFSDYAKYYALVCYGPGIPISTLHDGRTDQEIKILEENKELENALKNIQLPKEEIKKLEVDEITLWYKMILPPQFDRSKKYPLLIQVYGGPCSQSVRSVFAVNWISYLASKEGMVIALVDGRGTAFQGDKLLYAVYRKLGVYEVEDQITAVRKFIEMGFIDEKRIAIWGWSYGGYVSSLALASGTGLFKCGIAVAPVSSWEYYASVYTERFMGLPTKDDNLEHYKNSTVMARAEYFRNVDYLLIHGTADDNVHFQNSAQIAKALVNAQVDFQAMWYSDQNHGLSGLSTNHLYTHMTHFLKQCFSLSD

[5] = target: T1, human FAP (fibroblast activation …); experiment: flow cytometry on HEK293-hFAP cells, detection with anti-human IgG antibody
Method: as §1

recombinant human FAP [6] = target: T3, recombinant human FAP; experiment: SPR, fusion protein captured by anti-human IgG (Fc) on a CM5 chip, human FAP as analyte 1.5625-200 nM, 1:1 binding model
Method: Specifically, the surface of the CM5 chip was activated with a 1:1 mixture of […] NHS (N-hydroxysuccinimide) and […] EDC (1-Ethyl-3-(3-dimethylaminopropyl) carbodiimide), and 25 μg/ml of anti-human IgG (Fc) antibody was immobilized for 400 seconds at a rate of 10 μl/min. The remaining active ester groups were blocked with 1 M ethanolamine. T1.01, T1.02 and T1.03 were diluted to 2 μg/ml and reacted on the CM5 chip immobilized with the anti-human IgG (Fc) antibody. The recombinant human FAP was diluted to 200 nM in 1×HBS-EP+buffer solution and diluted by serial dilution. The diluted recombinant human FAP was reacted at a rate of 30 μl/min. The association and dissociation times were 180 seconds and 400 seconds, respectively. After the dissociation, stabilization was performed for 60 seconds, and then a regeneration was performed for 30 seconds with a 10 mM glycine pH 1.5 solution at a rate of 30 μl/min.

[7] = target: T2, IL-12 receptor beta 1-biotin …; experiment: ELISA, protein coated in serial dilution, 1 nM IL-12Rβ1-biotin, streptavidin-HRP, OD at 450 nm
Method: as §2, §3, §4

Row | percent of cells bound [1] | fold change of the p-STAT4 EC50 with low molecular weight heparin against without, activated human T cells [2] | half maximal effective concentration (EC50) of p-STAT4 (Tyr693), AlphaLISA, activated human T cells [2] | EC50 (read off the curve) [3] | Kd (recombinant human FAP [4]) | koff (recombinant human FAP [4]) | kon (recombinant human FAP [4]) | percent of cells in the positive gate (hFAP-PE) [5] | Kd (recombinant human FAP [6]) | koff (recombinant human FAP [6]) | kon (recombinant human FAP [6]) | binding result [7] | Binder
1 | ≥ 99% | 5.5 times | 0.0565 nM | ~20 nM | 0.595 nM | 0.000139 s⁻¹ | 235000 M⁻¹ s⁻¹ | 99.8% |  |  |  |  | T1.02 (anti-hu FAP/hu IL-12 mut1, hu IgG1 DANG) (bispecific antibody, Knob-in-hole heterodimer) heavy: QVQLVQSGAEVKKPGASVKVSCKTSRYTFTEYTIHWVRQAPGQRLEWIGGINPNNGIPNYNQKFKGRVTITVDTSASTAYMELSSLRSEDTAVYYCARRRIAYGYDEGHAMDYWGQGTLVTVSSASTKGPSVFPLAPSSKSTSGGTAALGCLVKDYFPEPVTVSWNSGALTSGVHTFPAVLQSSGLYSLSSVVTVPSSSLGTQTYICNVNHKPSNTKVDKKVEPKSCDKTHTCPPCPAPELLGGPSVFLFPPKPKDTLMISRTPEVTCVVVAVSHEDPEVKFNWYVDGVEVHNAKTKPREEQYGSTYRVVSVLTVLHQDWLNGKEYKCKVSNKALPAPIEKTISKAKGQPREPQVYTLPPSRDELTKNQVSLWCLVKGFYPSDIAVEWESNGQPENNYKTTPPVLDSDGSFFLYSKLTVDKSRWQQGNVFSCSVMHEALHNHYTQKSLSLSPGK light: not shown not shown
2 | ≥ 99% | 9.4 times | 0.0145 nM | ~20 nM | 0.588 nM | 0.000152 s⁻¹ | 258000 M⁻¹ s⁻¹ | 99.8% |  |  |  |  | T1.01 (anti-hu FAP/hu IL-12, hu IgG1 DANG) (bispecific antibody, Knob-in-hole heterodimer: one anti-FAP Fab arm and one single-chain human IL-12 (p40-linker-p35) Fc arm) heavy: QVQLVQSGAEVKKPGASVKVSCKTSRYTFTEYTIHWVRQAPGQRLEWIGGINPNNGIPNYNQKFKGRVTITVDTSASTAYMELSSLRSEDTAVYYCARRRIAYGYDEGHAMDYWGQGTLVTVSSASTKGPSVFPLAPSSKSTSGGTAALGCLVKDYFPEPVTVSWNSGALTSGVHTFPAVLQSSGLYSLSSVVTVPSSSLGTQTYICNVNHKPSNTKVDKKVEPKSCDKTHTCPPCPAPELLGGPSVFLFPPKPKDTLMISRTPEVTCVVVAVSHEDPEVKFNWYVDGVEVHNAKTKPREEQYGSTYRVVSVLTVLHQDWLNGKEYKCKVSNKALPAPIEKTISKAKGQPREPQVYTLPPSRDELTKNQVSLWCLVKGFYPSDIAVEWESNGQPENNYKTTPPVLDSDGSFFLYSKLTVDKSRWQQGNVFSCSVMHEALHNHYTQKSLSLSPGK light: not shown not shown
3 | ≥ 99% | 4 times | 0.147 nM | ~20 nM |  |  |  | 99.3% | 1.3 nM | 0.000124 s⁻¹ | 94900 M⁻¹ s⁻¹ |  | T1.03 (anti-hu FAP/hu IL-12 mut2, hu IgG1 DANG) (bispecific antibody, Knob-in-hole heterodimer) heavy: QVQLVQSGAEVKKPGASVKVSCKTSRYTFTEYTIHWVRQAPGQRLEWIGGINPNNGIPNYNQKFKGRVTITVDTSASTAYMELSSLRSEDTAVYYCARRRIAYGYDEGHAMDYWGQGTLVTVSSASTKGPSVFPLAPSSKSTSGGTAALGCLVKDYFPEPVTVSWNSGALTSGVHTFPAVLQSSGLYSLSSVVTVPSSSLGTQTYICNVNHKPSNTKVDKKVEPKSCDKTHTCPPCPAPELLGGPSVFLFPPKPKDTLMISRTPEVTCVVVAVSHEDPEVKFNWYVDGVEVHNAKTKPREEQYGSTYRVVSVLTVLHQDWLNGKEYKCKVSNKALPAPIEKTISKAKGQPREPQVYTLPPSRDELTKNQVSLWCLVKGFYPSDIAVEWESNGQPENNYKTTPPVLDSDGSFFLYSKLTVDKSRWQQGNVFSCSVMHEALHNHYTQKSLSLSPGK light: not shown not shown
4 | ≥ 99% |  |  |  |  |  |  | 99.3% |  |  |  | no binding (tested: 10^5 pM) | T1.12 (anti-hu FAP/null, hu IgG1 DANG) (antibody, One-armed anti-FAP antibody without IL-12; used as the control for IL-12 activity) heavy: QVQLVQSGAEVKKPGASVKVSCKTSRYTFTEYTIHWVRQAPGQRLEWIGGINPNNGIPNYNQKFKGRVTITVDTSASTAYMELSSLRSEDTAVYYCARRRIAYGYDEGHAMDYWGQGTLVTVSSASTKGPSVFPLAPSSKSTSGGTAALGCLVKDYFPEPVTVSWNSGALTSGVHTFPAVLQSSGLYSLSSVVTVPSSSLGTQTYICNVNHKPSNTKVDKKVEPKSCDKTHTCPPCPAPELLGGPSVFLFPPKPKDTLMISRTPEVTCVVVAVSHEDPEVKFNWYVDGVEVHNAKTKPREEQYGSTYRVVSVLTVLHQDWLNGKEYKCKVSNKALPAPIEKTISKAKGQPREPQVYTLPPSRDELTKNQVSLWCLVKGFYPSDIAVEWESNGQPENNYKTTPPVLDSDGSFFLYSKLTVDKSRWQQGNVFSCSVMHEALHNHYTQKSLSLSPGK light: not shown not shown
